Experiment: soluble fraction after stress (log2 fold change); higher = more stays soluble; pooled small domains, quantitative proteomics
Settings: stress: pH 4
Summary of the method: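 How much of each domain stays soluble after acid stress, expressed as a fold change, is used to gauge aggregation propensity. Pooled custom libraries of small domains underwent pH 4 stress before high-throughput quantitative proteomics. A higher log2 value means more of the domain stayed soluble.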

Sequence	soluble fraction (log2)
HMEKIELKTVIPENLKKKRLDFALSELFPEHSRSRIQSWIKEGSVMVNSKNYRQRDLVDAGDVVEINTEQK	0.321
HMEIRNLMPILSHFLNENDIKLSRESVNLVLDRASGNRENLNNELKKIHDYSFSNKIIDFETIKKLTNLG	-0.215
HMEIVSTEEKIKRAAEQVFLLRGLEGARMQEIADVAGINKAMLHYYFRNKETLFDVILSEKL	-1.14
HMTLRDRDQALEELWGQLADVPMDSETERLLEPFMGWGVGVSRDEIWHWFDRRHSKGIGHLLYS	-1.67
HMFRMTPQRMAILAEVQNAERHLTAAEIYERVRRKYPTIAYGTVYRTLHLLAKHGLIQEFPFGDNASLFDR	-0.0123
HMVLSVRERMGIVLEKVNTETFTDFKELFTVEEGRAGAIVSLLAILQLMKDSLIQLVQNEPNGPIYVKAA	0.22
HMVVTMEKIVVNDGGIRIDTYLADKLNISRSKVAKMLENNILVNNVKVKPSYKVTNNDIIEVEEYV	0.402
HMATVNIGNLTFTHKGDYASGTTYAKNDVVYYSTNGNAYIAKQATQGNAPTSTAHWDVFAAGSGG	0.145
HMPDTETLTPRQRQILDLVQELGFTTIETLAERFGVSAQTVRREIIRLQAGNFLQRFHGGAGLASGGIRSA	-0.325
HMTATSKKAAWDEVNKIFPTDYERSAAESERAGYAIFRSTAEGVNAWISDLGDRLEINLPDGKTVNIWIEE	-0.624
HMAEWLFDARKIPDEVMNYLRRIAVQAIEEKHYSPELVADLLGISRSSIYDWLNWYRNGGEEDLDTRKA	-0.543
HMSTKRGEILEFLKDFSARKGYAPSVREIMQAVGLKSTASVHYHLSELHKAGLITVDGTKNRAISLA	0.0891
HMINFSKNIISDTTSIKEAIEILNIISGRDNHILFVLNDKRQLIGTLSDGDVRRGMLASKTISQSVTEVM	0.0244
HMSQVHYAVLFKNASAAEATEIVTYARETLGVQDIKINANGDILVPEDKVEEMRVSMSIAGFPK	-0.349
HMPTTNIRAFRLREADPESVKEALSMVMPKTSIYVDARTKSVLVVGLLDELARAAEIVALIDQP	-1.13
HMLRPMVAILNKNISKGQVISEDYIKFEVRPERQIHGAYHDISEVLGRKTKNNIAAGTILKVRHLDT	0.375
HMLPDLLNGRVIPSPEKVIRARLNRGVWELLVQWVGRAPSDATWENLLEFKSAYPSVQLEDALF	-1.1
HMFDLDIEQIANDLKHGVMPNLYGLSLQDALYLLEAKGIRVKVAGSGSVVNQSIKTGAYVGSGSVLKLEL	-0.833
HMKGPAFAKIDLTQLPAGLTSFLNTNAAGFKLDYAVAITKDSVIIEYHVGVTIGTAKKEFHLDPNFQLLP	-0.1
HMSDDSTIVELLASSLRRDIAFGTLLPDQKLKLNELRTRYGGSIHSMRETLRILSAEGLVEATAQRGFRVT	-0.395
HMSEPTVVAINETLTSERLDRYLTTQLPHISRGGIQRLLRKGNILVDGKPAKPTQHPVAGQTVEITWPIPK	-0.02
HMSKLQKTKYAGVYFTEDTQTRVKTYVARIVLAGIIDTEVVVGHSNDQHRTNAAIAYQRRLELIQEAKN	-0.372
HMKYVDYYATLGVARDADLATITKAYRKLARQTHPDLNQGADNEARFKAAAEAYATLKHPEKRAAYDELGQ	0.117
HMQNNWFYEENGQRKGPVSENEMVQFIKSSVISHGTSVWKQGFPDWLKVENTDLRVHLDNSAP	-0.611
HMILVLKPGAPEDLKNELIHDIEKMGLRVHVSVGEGTTIIGLIGDTSKISKYTFSSYEIVSNVLRVT	-0.35
HMQIAGLDDIDNRIIDLLLKNGRASYSEIGAAVGLSRTAAKNRIRALEASGIIRGYQAILDPQA	0.0596

Sequence	soluble fraction (log2)
HMVELVKVPALQGETVDEAIADIKDAGLEPGQVRYVESDLPKDTVTYQSVDAGEQVKAGTVINLQASKGP	0.137
HMVDIEQAEFLSRQFDLLLARLDDPTIEWQDIADIRSEYTGENEHRDTIRKGSKLFYEYLQAGWIKN	-0.809
HMPSLSREREAAILEMIERRPSTAEDVASGLGLAVNEVIKLLDGTALRGSVETFQSGEEIYYTRKR	-0.294
HMHAPRIEVVQIDPEKIGALIGPGGKNIRRITEVTGANLDIDEDNSGKIRVYASDSEAMNRALQEIDLVT	-0.18
HMKNDIQLKHDVEEELQWDPAVDASRFAVQAKDGVVTLSGGVDTFADKHAAEEAIRRVAGVTALVIHVDV	-0.271
HMNPEDDLLKAIIMKYFSNAQVQVDKNVIEYLLKRVDRDYQNLYNILEKINILSLQRKSKITTHLIRDIM	-0.624
HMTRQNTAVQQSDMAHHKASELTEGMSIVHSHFGRGTIISIETADDPRVTVDFSSEGRKTMLLRFAKFAIE	-1.08
HMKQLRVLGIVKAGSILKNSDGSIEFVIEDSGKSLLVKYKGVIPDIFKDGVEAVVEGDLRGSVFNADKLF	-0.2
HMDQSIDADIINLNFSKNIIKIEENVYYKNNNAKVNADKIEINIETKKLKISMNEQEDEVEIFAK	-0.399
HMQDYISAEEAKSAALSASQVDSAGAAFSAAELGEKNGIPYYEVAFTADGLEYRYAIDAQTGTVIESSSSG	-0.164
HMSLRGEKTYDEAHQKLIKSAVELFKNPLVSPEKITVSQIAKHAGVSVATAYNHFPENKLDIYGSIF	-0.0613
HMVYLPGEEIPLKIIQEGKESGQGVGYLEDGTMVVVENGRRYLNQEVLVQVTKILQTNAGRLIFAVP	0.11
HMKNIRKQAIEAIDRIKNGNPIVISKNAKLIFKNIAKEANVSPTELHREFRDVMLYVNSLKAP	0.271
HMQKNKSVLFKDIVIAFNQNPKKLFNYKQLAADLDIHSEAERMLISQLLNDLKDQNFLEEVERGKYKLKL	-0.479
HMSDIDHIAGRRIRQARLNAGMTLETLASQAGISKALLSKIENSKVSSPLATFSKISKVLGVPLSDLLKE	0.204
HMNPHGVAIIDVRKGKASTLRSLATSVRSLGEWDQLKIPIFNLESLTSLVLWHGLDAIVKEPESLQSNLIL	-0.222
HMIHQIPVNVQKIRQIIGINLNENDYLNYLAKLGFVIDEGLIIVPSFRSDVKTQNDLAEEIARV	-0.236
HMEEITLQEQINFIKDMLLNKEKFHLTDVITKKSKIYVVSLFLALLELIRLEEINFRQTQNFSDIIISRI	-0.381
HMSELSEVIEKTFEELPEELKLIVKLREIDDLSYDEISNKIGIPIGTVRSRLHRAREILINIIKN	-1.01
HMTMGAAEAQALKDEALELYRTGGTQEDVVRAIEMYEQAAEAGNAQAASDLAYLKANGVYETAMNN	-0.75
HMSQLSDEQELRDIARGIIEGNPNEAEKYRAGRTGLLGFFVGKLMAETEGKANPRLASRILKELLE	-0.441
HMTFSDKIRELRKQKGVSQAVVAEYLGITKQAYSLYETGKREPDFDSLLKLAEYFGTDTDSLLY	-0.379
HMGQLTDKQILLFSGKLAYEPTFASKYSKAGESYDDFIIRISGDLTDPKKIKEYSPYLKELGF	-0.954
HMDDADPYEILGVERDAEDAEIKRAYHDLIRENHPDRLMAEGLPQEMIDVANEKVAFINDAYDRIEKLRGM	-0.89
HMAAPPPLSDYRNMQEAEHIRNILLQHHGNVRRAAAALELSRPYLYQKMKQLGINIAELRELSLSHSS	0.161
HMYIEKTAYINDTAVNVRKSATTDSDVIKVLALNTEITIIGEENDWYKVKSGNDIGYIAKRLVSDQKKE	-0.109

Sequence	soluble fraction (log2)
HMSGALDTVVGIRMLKLLSTPIEKSKAFQVGIINKDGKKLRDPTSGERQHYTFLNRFVFKVQYALMRS	-0.072
HMSVTSEIGAKIKYFRKSKHFSLQEMADLLYKSKSTLSKYENGQISIDIETLYAIAKVLGVHVEQLLYSEP	0.222
HMGRMSLDEAKAVILPIGEHKGHTMGEVLAIKPGLIDFYASQKFNSGKYPYLKEAAQVILENQG	0.173
HMGSVDMVYGDHKINSEHMDLSFKNQTAVLYDKVNYKSSLSMLSADKILVNFLNKYTKIEMNDENNNILIQ	-0.128
HMLYDNQLPDWAGQMVKNHGLTISPKALVILVDHIGNDLSRIENEIEKLMLNLGTRKSITEDDVEN	-1.34
HMHDYNTIVGVIEMRDKNIPLTSIRQRYGIGYSGIDLILTRYKDSGLTLKEFLALDPSQAEELIYPPK	-0.134
HMGNVGEAIEALVKGFQEGNQFQTLLGVTGSGKTFTMANVIAALNKPTLIISHNKTLAAQLYLSLIHIS	-0.255
HMNNFTQSALDTIDGIGKRRKKLLLNHFGSVKLIENASIEDIKKIDGISDLVANKIYNFFNKN	-0.173
HMQEDKVRKLTEMGFAEDQAREALRKHDWDETMALNSL	-0.244
HMNHLSYEQRLKIKEMLDGGFKKIDIARALGVHNATIYREIERGSVNGIYNPNKSEEQYRDHLSEK	0.0704
HMKKILITGNSGYIGSHLSKMLENDYEVHGLDIRQPQHPVAKFYEQDINRPINIEEEYDAVIHLAALV	-0.104
HMLEKVLDNHIHKLRLQHKISQQELADAIGVSRKTISTVETGRFTPSVVIALKIAAHFSVSVEQVFTL	-0.187
HMAWAVRAGEGVLIRAGQPGFSATTRGTALSNGAIGEGVRVRNLGSGKEIQAWVVDKGEVETR	0.136
HMKLTKPQEVFIQELLKGSSQYEAYLKAYPSKKTWKRNSIDTEASKLFKNAKIKQRYEELLYNIREE	-0.175
HMFAQDKKFITYKVKEGETVQSISKALSITPYDLLKLNPDIKDNVSQDDLLIIPNKQYDPLGDI	0.421
HMDAKQLQSLKNNNEQLAGFIVRLTNFYEGLSPDIDAELSKLRSHLSGKVDYTLATVSINKINQLFMLEP	-1.75
HMDQTIFFGQQKAINNLSTDAGLSATELDEYLKKRYKRPLYQLTQAEGAEIIKGFQDGALSRSSILDYTK	0.22
HMAQTTKWREIHKVKRKETIFGIARDNGLTVDELIEANPEMTKPGYELKKGDFIYIPFPSKNIDTNAGTQT	-0.627
HMRMSPRERKIYQFIENHPGTKSGEMAEKLGIPLPTIKRLLSDMVASKLLQKHGTGAGTNYSIEE	≥ 0.43
HMLADEPTGALDSKTSVQIMALLTEIAQDRLVIMVTHNPELADEYATRIVNLRDGVISDDSDPFNP	-0.289
HMRRMAYLVGQRGLAMGDFISGTGQVRIGDTVWRAEAVEGELVRTGDTVVVEGAKMTTAIVRRVM	-0.302
HMASLIGEEKALQIALEHAGVALENVAYSQVKLENDDGRWEYDTEFYSGSKEYDYEIDASTGEILGYDHD	-0.0579
HMDLQAAWLQTVRHLLAHTEDVGDRFAEEARRIHYGEEPHRGIRGQATPEERLALREEGIETMSIPV	-0.204
HMISESIPAKDALLRLLNTAYQTRTNAAGEFYFNDVPPGKYILQASVNDVEIIRENISINEN	-0.433
